In the DeepSol protein solubility set:

Assay: soluble on expression in E. coli; label from the status in PepcDB or PDB records

Row | Sequence | soluble on expression in E. coli
1 | MKLGNVVIVLGKRLVNNQLSAEGISRVEALAAKIREMPMENTALVFCGGKTQGQSISEADAMYAYFQTLNTSLAKPFPTSQTLLENRSLNTFENMRNAAKVLCESGLFPLPSQATVEVILLSNVYHLERILEIQTLMDEQGLLRVIKSQCASVGLDLHISLDIQKHISVPYPHQGPQAEAFLLLDELTTYRVYLEGVKSGAFQRDLTSVRAQPLLRAKQAISQLRALPLEMDVLQQIAEMKKAIEMTAFDESVATAERALEMFHPILTALNRRLDPESIQAAALEHHHHHH | soluble
2 | MSLTTSYHIGNVVCAIIEREGRFLIARRPLGKHLARKWEFPGSKVETGESEAEALERELIEELGVRMEIVERLMPVEHCYADRSLRLIAFHCRIAAGAPNAGEHEELRWIDIGEADDYDFPEADLPILAEYRQKIAASVQSEGHHHHHH | not soluble
3 | MTMRTYKNPYPDSEDAVEIRFDHCREDIAKAAQEYWREMTEAELDDLQEEIMRALAVSEWQNIWLTSAAFITVLAYHFHD | not soluble
4 | MDVPADSHIKYEDAIDYWTDVDATVDGVLGGYGEGTVVPTMDVLGSNNFLRKLKSRMLPQENNVKYAVDIGAGIGRVSKTMLHKHAAKIDLVEPVKPFIEQMHVELAELKDKGQIGQIYEVGMQDWTPDAGKYWLIWCQWCVGHLPDAELVAFLKRCIVGLQPNGTIVVKENNTPTDTDDFDETDSSVTRSDAKFRQIFEEAGLKLIASERQRGLPRELYPVRMYALKPMPN | soluble
5 | QEQLVESGGRLVTPGTALTLTCKVSGFSLSGFWLNWVRQAPGKGLEWVGAIYRGSGSEWYASWAKGRFTISDTSTTVTLKLTSPTTEDTATYFCAADTTDNGYFTIWGPGTLVTVSSASTKGPSVFPLAPSAKSTSGGTAALGCLVKDYFPEPVTVSWNSGALTSGVHTFPAVLQSSGLYSLSSVVTVPSSSLGTQTYICNVNHKPSNTKVDKKAEPKSCDKTRGHHHHHH | soluble
6 | GPGSMKEIILYTRPNCPYCKRARDLLDKKGVKYTDIDASTSLRQEMVQRANGRNTFPQIFIGDYHVGGCDDLYALENKGKLDSLLQDVH | soluble
7 | MCAHRPATAPDFLLSRSHGSIRTQGAVETFSDPGKAVEALRSGRVELVVGALAFRRDHACALTVPRSVIREEGPLEPHAYYRQGPGSIVNAQVEKLVPSLDKHHARVEAAINTIKSTSLKKVVLARAVDMTFSPAVDPRLIAARLIDLSRNRDGFIADLTPAGEDFAGAM | not soluble
8 | MGSDKIHHHHHHMKAPLVSIIIPVWNLWELTCACLDSIRAHTPGNAVEVIVVDNGSDDTTATALAPTGEGLFGARFRRIRLETNRGFAVACNLGAAKAQGTYLLLLNNDTVLSPGWLPPLLREFDDEPRTGAAGPLLVYPDSGRVQHCGIAFAPTLQTEHLYANFPATHPAVRARRTLQAITGAAMLLPTALFRQCGGFHEGYKNGCEDLELCCRIREQGLRLAVVPESLVAHHESRTPGRKEHDAANATLLNRRCSGCFGPDLHRHALRDGFAIALTPWLDTYLTLPPGREAALTREHITDFDPGRCWETLQGEPLWHGGYEMLCSILDEAGRHAESAGVRLLQAGFFPTLPGFRQLARSAALSGNDELARQAAEKMQHIGGILEDPEPLVTRARGLVRWARRAGEPAVEALYTGWLTDIGLSADD | not soluble
9 | MLRRQARERREYLYRKAQELQDSQLQQKRQIIKQALAQGKPLPKELAEDESLQKDFRYDQSLKESEEADDLQVDDEYAATSGIMDPRIIVTTSRDPSTRLSQFAKEIKLLFPNAVRLNRGNYVMPNLVDACKKSGTTDLVVLHEHRGVPTSLTISHFPHGPTAQFSLHNVVMRHDIINAGNQSEVNPHLIFDNFTTALGKRVVCILKHLFNAGPKKDSERVITFANRGDFISVRQHVYVRTREGVEIAEVGPRFEMRLFELRLGTLENKDADVEWQLRRFIRTANKKDYL | soluble
10 | MPPQPQIMVDLQMEQVMPNPDLKNIARLISQDPGLSGALLKLVNSPFFGLANRITSIQRAVNLLGSRSVINLINAQSIKGEMSDDTIVTLNRFWDTAQDVAMSCLSLAKRIGYESVDEAYALGLFHNCGIPLMLKRFPHYMAVLEEAYAAASDERRVVDTENRVLNTNHAVVGYYTARSWRLPEHVCEAIANHHNALSIFGDESARDTQLKNLLAILKMAEHICGSHRVLGNQPEDHEWNSIGALVLDYVGLTDYDFENLKGSILELGVGQGSY | not soluble
